US20080058276A1, “ALZHEIMER'S DISEASE THERAPEUTICS BASED ON PIN-1 CATALYZED CONFORMATIONAL CHANGES IN PHOSPHORYLATED AMYLOID PRECURSOR PROTEIN” (CORNELL RESEARCH FOUNDATION, INC., priority 2006, published 2008)
Bridge positions count the residues as written; N and C are the ends. Square brackets hold non-standard residues; d marks the D form. Ends that are not written are not given here. pT = C[C@@H](OP(=O)(O)O)[C@H](N)C(=O)O; resin = not defined here

Assays:
Pin1 WW domain = molecular target: T1, Pin1 WW domain (Homo sapiens, UniProt Q13526); experiment: Competitive GST-WW pulldown of 32P-AICD; assay type: binding; conditions: increasing amounts of phosphopeptide
T1 construct: made in house; host or cells: bacteria
T1 sequence (Q13526 5-39 limits assumed): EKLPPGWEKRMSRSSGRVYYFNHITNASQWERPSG
Protocol: For competitive binding assays, synthetic peptides, APPtide (EVDAAVp[…] (SEQ ID NO: 13), and its non-phosphorylated counterpart, were synthesized and purchased from Merck Co. The accuracy and purity were identified by mass spectroscopy. APPtide was dissolved in the binding buffer described in Lu et al., “A Function of WW Domains as Phosphoserine- or Phosphothreonine-binding Modules,” Science 283:1325-1328 (1999), which is hereby incorporated by reference in its entirety, and added into the GST pull down reaction for the competitive binding assay (Lu et al., “A Function of WW Domains as Phosphoserine- or Phosphothreonine-binding Modules,” Science 283:1325-1328 (1999), which is hereby incorporated by reference in its entirety).
To identify the Pin1-binding site in APP, alanine was substituted for Thr668, the only Thr/Ser-Pro motif in the APP intracellular domain (“AICD”). […] AICD, but not AICD^T668A, was phosphorylated by Cdc2 (Suzuki et al., “Cell Cycle-dependent Regulation of the Phosphorylation and Metabolism of the Alzheimer Amyloid Precursor Protein,” Embo J 13(5): 1114-22 (1994), which is hereby incorporated by reference in its entirety).

APP = molecular target: T2, APP (Homo sapiens, UniProt P05067, T743A); experiment: GST-Pin1 pulldown of APP and its mutants; assay type: binding; conditions: expressed in mitotic cells
T2 construct: expressed in transfected cells; host or cells: N18 neuroblastoma cells transfected with HA-APP (from APP/pCMV)

CHO-APP cells = experiment: Total Aβ secretion (ELISA) after Pin1 overexpression in CHO-APP cells; assay type: cell-based, Chinese hamster; conditions: asynchronous or mitotic cells
CHO cells = experiment: Total Aβ secretion (ELISA) after co-transfection of Pin1 and APP751 in CHO cells; assay type: cell-based, Chinese hamster; conditions: Pin1 overexpression with APP751, asynchronous or mitotic cells
[1] = molecular target: T3, pThr668-Pro motif in APP (21-residue phosphopeptide G659-Q679 of APP) (Homo sapiens, UniProt P05067); experiment: NMR (ROESY) analysis of Pin1-catalyzed cis/trans isomerization of the pThr668-Pro bond; assay type: biochemical
T3 construct: isomerization of the pThr668-Pro bond in a 21-residue phosphopeptide (G659-Q679 of APP); made in house; host or cells: peptide chemically synthesized; Pin1 recombinant (bacteria, as said in general terms)
Protocol: All experiments were recorded at 25° C. on a Varian Inova 600 MHz spectrometer with the ^1H carrier set on water. ROESY data sets were acquired with spectral widths of 6 kHz (8 kHz) in t1 (t2) and 640 (2048) complex data points, and were processed as described in Ramelot & Nicholson, “Phosphorylation-induced Structural Changes in the Amyloid Precursor Protein Cytoplasmic Tail Detected by NMR,” J Mol Biol 307(3):871-84 (2001), which is hereby incorporated by reference in its entirety. Peak intensities were obtained using Pipp (Garrett et al., “A Common-sense Approach to Peak-picking in 2-Dimensional, 3-Dimensional, and 4-Dimensional Spectra Using Automatic Computer-analysis of Contour Diagrams,” J Magn Reson 95:214-20 (1991), which is hereby incorporated by reference in its entirety), and curve fits and error analyses were performed using SigmaPlot (Systat Software, Inc.). […] Ict/Icc=kct^cat[exp(kextm)−1]/[ktc^catexp(kextm)+kct^cat] Itc/Itt=ktc^cat[exp(kextm)−1]/[kct^catexp(kextm)+ktc^cat] where kex=kct^cat+ktc^cat, and tm corresponds to the ROESY mixing time. The desired rate constants were extracted by recording ROESY spectra with different mixing times and fitting the intensity ratios obtained to the above equations. ^15N—^1H HSQC data sets were acquired with spectral widths of 1.4 kHz (10 kHz) in t1 (t2) and 512 (2048) complex data points, and were processed as described in Ramelot & Nicholson, “Phosphorylation-induced Structural Changes in the Amyloid Precursor Protein Cytoplasmic Tail Detected by NMR,” J Mol Biol 307(3):871-84 (2001), which is hereby incorporated by reference in its entirety.
In the ROESY spectrum, the intensities of exchange and diagonal peaks for a two-state isomerization reaction explicitly depend on the forward (“kct^cat”) and backward (“ktc^cat”) rate constants (FIG. 5B), and on the mixing time (“tm”).

[2] = NMR (2D 1H-1H TOCSY and 1D 31P) determination of cis and trans populations of phosphopeptide; assay type: physicochemical; conditions: pThr-Pro bond, NMR on reaction mixture
Text: The cis conformation of the pThr-Pro motif in AICD is unique from the trans isomer in that it is stabilized by different hydrogen bonds, and it is more extended in backbone conformation, aside from the kink of the cis peptide bond (Ramelot & Nicholson, “Phosphorylation-induced Structural Changes in the Amyloid Precursor Protein Cytoplasmic Tail Detected by NMR,” J Mol Biol 307(3):871-84 (2001), which is hereby incorporated by reference in its entirety). It was hypothesized that the cis conformation could be stabilized by formation of a covalent bond between V667 NH and E670 COO— (hydrogen bonded in the NMR structure), thereby stabilizing the cis isomer relative to the trans. A 6-residue phosphopeptide corresponding to APP residues V667-R72 ([NH2]-V-pT-P-E-E-R-resin (SEQ ID NO: 1)) was commercially synthesized with an orthogonal blocking group on E4 (Tufts Core Facility), and sent on the resin. […] The spectra show two cis populations that most likely reflect different hydrogen bond geometries adopted in the cis isomer (Ramelot & Nicholson, “Phosphorylation-induced Structural Changes in the Amyloid Precursor Protein Cytoplasmic Tail Detected by NMR,” J Mol Biol 307(3):871-84 (2001), which is hereby incorporated by reference in its entirety).

WW domain of Pin1 = WW domain of Pin1 (Homo sapiens, UniProt Q13526); experiment: 15N-1H HSQC titration of {15N}-WW with peptide; assay type: binding; conditions: relative to linear pAICD
Sequence of WW domain of Pin1 (Q13526 5-39 limits assumed): as above
Protocol: The pThr668-Pro peptides were synthesized, purified, and analyzed as reported in (Ramelot & Nicholson, “Phosphorylation-induced Structural Changes in the Amyloid Precursor Protein Cytoplasmic Tail Detected by NMR,” J Mol Biol 307(3):871-84 (2001), which is hereby incorporated by reference in its entirety). […] For ^15N—^1H HSQC experiments, ^15N-E670-pT668 peptide was dissolved in the same buffer adjusted to pH 6.7, with subsequent addition of an equimolar amount of the WW domain (0.2 mM). All experiments were recorded at 25° C. on a Varian Inova 600 MHz spectrometer with the ^1H carrier set on water. ROESY data sets were acquired with spectral widths of 6 kHz (8 kHz) in t1 (t2) and 640 (2048) complex data points, and were processed as described in Ramelot & Nicholson, “Phosphorylation-induced Structural Changes in the Amyloid Precursor Protein Cytoplasmic Tail Detected by NMR,” J Mol Biol 307(3):871-84 (2001), which is hereby incorporated by reference in its entirety. […]
Natural abundance peptide (either the linear or cyclic pAICD peptide) was incrementally added to {^15N}-WW and peak shifts were monitored via ^15N—^1H HSQC spectra.

[3] = linear sequence; cited from earlier work

EVDAAVpTPEERHLS (SEQ ID NO: 13) (EVDAAV[pT]PEERHLS) [pThr668-containing APP peptide]
competition of 32P-AICD binding to GST-WW (Pin1 WW domain): effectively competed

Pin1: peptidyl-prolyl isomerase that specifically isomerizes pSer/Thr-Pro bonds; GenBank Accession No. U49070
binding to APP^T668A mutant (APP): failed to bind
Aβ secretion (CHO-APP cells): significantly reduced
Aβ secretion (CHO cells): significantly reduced
difference between kct^cat and ktc^cat rates [1]: 10 fold
acceleration of pThr668-Pro isomerization rate over typical uncatalyzed isomerization rates for pThr-Pro peptides ([1]; 3 mM peptide, 0.05 mM Pin1, 25° C.): several orders of magnitude
ROESY exchange cross peaks (E670-HN cis/trans) ([1]; catalytic amount of enzyme, 60:1 peptide:enzyme): exchange cross peaks were observed
average lifetime of the cis isomeric state ([1]; in presence of Pin1): ~0.05 s
average lifetime of the trans isomeric state ([1]; in presence of Pin1): ~0.5 s
acceleration of isomerization of the phosphorylated Thr668-Pro motif in APP ([1]; visualized by NMR): over 1000 fold

cyclic pAICD: VpTPEER (SEQ ID NO: 1) phosphopeptide cyclized by covalent bond between V667 NH and E670 COO- (V[pT]PEER; lactam N-4)
cis population [2]: ~30%
trans population [2]: 70%
WW domain peak shifts upon saturation with peptide (WW domain of Pin1): smaller peak shifts

[NH2]-V-pT-P-E-E-R-resin (SEQ ID NO: 1) (H-V[pT]PEER-resin; not fully specified; printed as [NH2]-V-pT-P-E-E-R-resin; reading uncertain) [6-residue phosphopeptide, linear phosphopeptide corresponding to APP residues V667-R72]
cis conformation [3]: 10%
trans conformation [3]: 90%
